Test results from the DeepSol protein solubility set.

Assay: soluble on expression in E. coli; label from the status in PepcDB or PDB records

Sequence	soluble on expression in E. coli
MSLVAVRSAHLNPDQQFELETWIASLTQEGKTAAKLTAVYRDCEQLLAGNPQGPLLLWRGREMIEILITLSMDRPTLVAALLFPIATSGVLDNESLEEGYGREVVKLIHGVEEMAAIGQLNVTMHGSEASAQVDNVRRMLLAMVDDFRCVVIKLAERICNLREVKNEPDEVRRVAAKECANIYAPLANRLGIGQLKWEIEDYAFRYQQPDTYKQIAKQLSERRIVREQYIRDFVSDLRAEMKQSGINAEVSGRPKHIYSIWRKMQKKSLAFDELFDVRAVRIIADKLQDCYAALGIVHTKYKHLPNEFDDYVANPKPNGYQSIHTVILGPEGKTIEIQIRTKQMHEESELGVAAHWKYKEGSSAARSGYDEKITWLRKLLDWQEEMSDSGEMLDELRSQVFDDRVYAFTPKGDVVDLPMGATPLDFAYHIHSEVGHRCIGAKVAGRIVPFTHKLQMGDQVEIITAKEPNPSRDWLNPSLGFVHSGRARAKINAWFRKQSREKNLEAGREILEIELAKIGANLKHAEAYALKRFNVNSVDEMYVGIGSGDLRINQIVNHINALVNKPTAEEEDKLALEKLQENKTLTPNRPHKDAVVVEGVDNLMTHLARCCQPIPGDEIRGYITQGRGISVHRSDCEQLEELSLHAPERIIDTVWGSGFVGSYLLTVRVEAMERSGLLKDITTLLANEKVKVASMKSRSDYKRQIIIMDFDLEVNNVEALARVSKRIEQIKDVMLVKRLGEGHHHHHH	not soluble
MGSDKIHHHHHHMVELKAPLTTLWRGKDAFEEVKTLQGEVFRELETRRTLRFELDGKSYFLKWHKGTSLKEIVKNLISLRMPVLGADREWHAIHRLHELGVDTMHGVGFGEKGVNPLTRTSFIITEDLTPTISLEDYCADWAVNPPDAQVKWMIIKRVATMVRKMHAGGINHRDCYICHFLLHLPFTGREEDLKISVIDLHRAQIRQHVPLRWRDKDLIGLYFSSMNIGLTQRDIFRFMREYFSLPLREILQKESGLIHQADVKAARIKERTIRKNL	not soluble
MTLVSIVAPNLIEQGKVMEMLQGGRDNAIYRTGDRVSRPASSWTMTVHQLLNHLHSNGFTQCPKVIGIEGGKEWLSFVEGDTFNYPLQGSIASVTALLSAAKMLRRMHDASEDFLISHQSEVCHWMLPDRVPQEVICHGDFMPYNVALNGETVVGVFDFDTAHPAPRLWDVAFSIYGWAPFKTDENDRMGNLEQQIQRAKLFCDAYGCSKLERENLVDVMTLRLTALVDYMRLMASSRDERFQANLEEGHHIAYLQDIDYLRQHHQAITLGMLKER	not soluble
MSEVLNRQSREITTIVSQPNISRPNYQREKGKERLLGIKATESSNKAGQSFVPQLNPSGTLFTISMKPPAKINTGYTPVDEQKEVKAEVRNSEITEKSFGQAKFIGVSAGNTVGYVIPNLEPGLSQYLQANRSLRAIGVISSRVGAAAQIMAADEAVKKTNSELIRLELARDELGGPGHGVFALFGAEDVADVIRAVEIALKATEEYYQNIKNTPAGKIETHYTARAAAALNKAFGAPLNQAFGIIIGAPAGVGLLMSDTALKTAHVTMVSFWGPSVVQAFANEVWFTVTGDSAAVKNALEAAREVGLQVLAEFRA	not soluble
MNIMEIEKTNRMNALFEFYAALLTDKQMNYIELYYADDYSLAEIADEFGVSRQAVYDNIKRTEKILETYEMKLHMYSDYVVRSEIFDDMIAHYPHDEYLQEKISILTSIDNRE	soluble
MRDEEPVRRLETIVEEERRVVVQGYVFDAEVSELKSGRTLLTMKITDYTNSILVKMFSRDKEDAELMSGVKKGMWVKVRGSVQNDTFVRDLVIIANDLNEIAANERQDTAPEGEKRVELHLHTPMSQMDAVTSVTKLIEQAKKWGHPAIAVTDHAVVQSFPEAYSAAKKHGMKVIYGLEANIVDDGVPIAYNETHRRLGSGSGPFHVTLLAQNETGLKNLFKLVSLSHIQYFHRVPRIPRSVLVKHRDGLLVGSGCDKGELFDNLIQKAPEEVEDIARFYDFLEVHPPDVYKPLIEMDYVKDEEMIKNIIRSIVALGEKLDIPVVATGNVHYLNPEDKIYRKILIHSQGGANPLNRHELPDVYFRTTNEMLDCFSFLGPEKAKEIVVDNTQKIASLIGDVKPIKDELYTPRIEGADEEIREMSYRRAKEIYGDPLPKLVEERLEKELKSIIGHGFAVIYLISHKLVKKSLDDGYLVGSRGSVGSSFVATMTEITEVNPLPPHYVCPNCKHSEFFNDGSVGSGFDLPDKNCPRCGTKYKKDGHDIPFETFLGFKGDKVPDIDLNFSGEYQPRAHNYTKVLFGEDNVYRAGTIGTVADKTAYGFVKAYASDHNLELRGAEIDRLAAGCTGVKRTTGQHPGGIIVVPDYMEIYDFTPIQYPADDTSSEWRTTHFDFHSIHDNLLKLDILGHDDPTVIRMLQDLSGIDPKTIPTDDPDVMGIFSSTEPLGVTPEQIMCNVGTIGIPEFGTRFVRQMLEETRPKTFSELVQISGLSHGTDVWLGNAQELIQNGTCTLSEVIGCRDDIMVYLIYRGLEPSLAFKIMESVRKGKGLTPEFEAEMRKHDVPEWYIDSCKKIKYMFPKAHAAAYVLMAVRIAYFKVHHPLLYYASYFTVRAEDFDLDAMIKGSAAIRKRIEEINAKGIQATAKEKSLLTVLEVALEMCERGFSFKNIDLYRSQATEFVIDGNSLIPPFNAIPGLGTNVAQAIVRAREEGEFLSKEDLQQRGKLSKTLLEYLESRGCLDSLPDHNQLSLFSGGHHHHHHHH	soluble
MGSDKIHHHHHHMKLRYIFYGLTSGLLFGLSSCSLNYDPIDTYSDVTEGVTDTGTKVVFKDKAAVESHLTTIYNQMRDRQEHWYVDLLLISDSHADNAYAGTTGAEVLPFENNSIEGSNSVLERDWNRYLEDVARANKLICNIDLVTDNSLTTAERAQYKAEAMIFRAMVMFDMVRLWGDFPVITTVADDITSENIEDVYEQYFPAQNTELEAYQQIEKDLLAAIQHAPDNTAGNKTLFTKSVARTLLAKIYAEKPLRDYSKVIRYCDEVKADGFELVKDFSDLFGMNAAGTDAKARNTKESILEAQFTPGSGNWCTWMFGRDLVNWNNNFTWAKWVTPSRDLINAFKKEGDQIRFQESVVYYDCNWSNYYPSDNYPFMYKCRSANSSIIKYRYADVLLLKAEALIMQDTPDLEAAAKIIDEVRERAGLGELSSSVRKDRDAMITALLNERRLELAFEGQRWFDLVRLDKVEEVMNAVYAKDSGRKSQVYAFDKNSYRLPIPQSVIDANDKIEQNPGY	not soluble
RRENARRFDRKQYDFVDIDECAIQTKTYPGSDHDMAQDWLQKQMMILKPKYREPLLLSLVAGLNHDEIAQALRLNHNTVATRLFRARNQLIAQQGNH	not soluble
MTLTMGFIGFGKSANRYHLPYLKTRNNIKVKTIFVRQINEELAAPYEERGVYFTTDLDELLNDKEIQVVTICTPAHTHYELAKKVILAGKSVIVEKPFCDTVEHAKELLALGREKGVVVMPYQNRRFDGDFLAVKQVVEQGFLGDIIEIESHIDYFRPGSITHEAPKEEGSFYSLGIHTMDRMISLFGRPNTVTYDIRNNEVEGAVDNYFDVGLHYGNQLKIKLKTNHIVAKDYPRFIVHGTNGSFIKYGEDQQENDLKAGIMPESAGFGEDSPMYYGIAKYRNANGDWIEKQIKTPLGDYGRFYDAAYDTIVNGAPKLVKDEEAVTNIEILENGFAAPSPSVYKLEALHLNELEHHHHHH	soluble
MAVPQLYYFTIRGFGEYIRLLFLDNGIKFEDIRFDYEGNEWQEFKKGMLLGQLPCLKVDGQEIVQTGAIMRHLGRVHGLNGSNEQEATFLDMFFEGVRDVRMKYVRYIYYDEGTREDCVNKTIPEALVKLEELFKAHSGDFIIGNKISYADYILFEELDVYHVLDANILDKFPTLKSFWERMWKRPNLNAYLEKRKADKVWINAIEKGMN	soluble
MNVTEISAGQFQEMVQAGATRLHTNAEYVNSLNVFPVPDGDTGTNMNLSMTSGAKAVADSRSEKVGELAGALSKGLLMGARGNSGVILSQLFRGFSKQIPEVTTLNAKDLAAAFTHGVETAYKAVMKPVEGTILTVSREAARSGERKAKETDDCIEVMTAVVAGAKRALAKTPDLLPVLKEVGVVDSGGQGLLFIYEGFLEALSGEFLPTETYEPSPAEMDEMVNAEHHRGVSGHVATEDIKFGYCTEIMVRIGEGPTVDSAFDYETFRNYLNELGDSLLVVNDDEIIKVHVHTEHPGEVMNYGQKFGSLVKIKVDNMRLQHETLVERDAQQEALTEKVRVPFAVIAIAAGEGVQELFRSLGASYIISGGQTMNPSTEDILKAVKEVNAEQVIILPNNKNIFMAADQAAEVADVPVAVVPSKTISQGMTAMLAFNDQQSLEENKASMTEMLDSVVSGQVTTAVRDTTIDDVEIKKDDFLGMIDGKIVVSEADRFNASLDTLNRMIDEDTEIVTIIVGEDGSVEEAEKLIAILVSENDELETELHEGGQPVYPYLFSAE	not soluble
PGPPQGPPQPVQQSKRLQQTQAQVEEVVDIMRVNVDKVLERDSKISELDDRADALQAGASQFEASAGKLKRKFWWKNCKM	soluble
MNNNDIEYNAPSEIKYIDVVNTYDLEEEASKVVPHGGFNYIAGASGDEWTKRANDRAWKHKLLYPRLAQDVEAPDTSTEILGHKIKAPFIMAPIAAHGLAHTTKEAGTARAVSEFGTIMSISAYSGATFEEISEGLNGGPRWFQIYMAKDDQQNRDILDEAKSDGATAIILTADSTVSGNRDRDVKNKFVYPFGMPIVQRYLRGTAEGMSLNNIYGASKQKISPRDIEEIAGHSGLPVFVKGIQHPEDADMAIKRGASGIWVSNHGARQLYEAPGSFDTLPAIAERVNKRVPIVFDSGVRRGEHVAKALASGADVVALGRPVLFGLALGGWQGAYSVLDYFQKDLTRVMQLTGSQNVEDLKGLDLFDNPYGYEY	soluble
MSLDDESYEEEHKRMVLKIHQEFWDLPTNYQEKPLVFGSQAKNRYKTILPNEHSRVILEPERSPAAGGEPYINANYIKGPDYANNSYIATQGPLPNTIYEFWLMVYQNVVRTATVAGRSCASAGLEQKIVMLTNFVENGRQKCAIYFPQTADEWVAFGSGADIDVGEMLREKDTITASIAAAEQQPEGQEAVGGVCQPVTVRVPCASCFFLVHNVAVEQRNGYTVRTLNVIYGAKVSDADAPDGDGSRALFELTQFRAHHYWFPDWPDHRSPKDINVLLDLSLDVLGSNVVDTPRPESSNSLKGNQPGTPGLEEVMGAAQLAALSSSCTPTVLPIVHSSAGIGRTGCLIAILNGLRQLRLSVMAHQRKQQQLKQSQAQTGEAGQGELHGSEGRRKSTVQMDGATLLAPNAAVGRGGQREGSAVVRESGQVDILGIVCNLRLQRGGMVQNSEQYELIHRALCLYLEKLTQDGQEGHHHHHH	soluble
MDRQAIEKTAGHLRPLMPTPPEIGLILGSGLGVLADEIEEAVRIPYEDIPGFPVSTVEGHAGRLVYGRLEGATVVAMQGRFHYYEGYSLQEVTFPVRVMKALGVRELIVTNAAGGINERFQPGDFMIISDHINLLGTNPLIGPNDPELGPRFPDMTEAYSRRLRELAKETAARLGVRVHEGVYVANTGPSYETPAEIRMIRTLGGDAVGMSTVPEVIVARHGGIEVLGISCISNMAAGMSDAPLHHDEVVETAERVKTDFLRFVKAIVAEMAKSKRKR	soluble
MSKGEKMKIKVGVLGATGSVGQRFVQLLADHPMFELTALAASERSAGKKYKDACYWFQDRDIPENIKDMVVIPTDPKHEEFEDVDIVFSALPSDLAKKFEPEFAKEGKLIFSNASAYRMEEDVPLVIPEVNADHLELIEIQREKRGWDGAIITNPNCSTICAVITLKPIMDKFGLEAVFIATMQAVSGAGYNGVPSMAILDNLIPFIKNEEEKMQTESLKLLGTLKDGKVELANFKISASCNRVAVIDGHTESIFVKTKEGAEPEEIKEVMDKFDPLKDLNLPTYAKPIVIREEIDRPQPRLDRNEGNGMSIVVGRIRKDPIFDVKYTALEHNTIRGAAGASVLNAEYFVKKYI	soluble
